How the values were obtained:
[1] = molecular target: T1, bovine serum albumin (bovine, UniProt P02769 25-607); test: SPR (Biacore 3000), BSA immobilized on CM5, 1:1 model; SE 2.2 × 10^4 in r14c3
T1 construct: also called BSA
Procedure: (§1) 1700 RUs of BSA (Sigma) were immobilized on research grade CM5-sensorchip (BIACORE). Ethanolamine blocked surface was used as a reference. Immobilizations were carried out at the protein concentrations of 50 μg/ml in 10 mM acetate pH4.5 using amine coupling kit supplied by the manufacturer. Antibodies were passed through Superdex 75 (GE Healthcare) column to separate monomer prior to BIACORE analysis.
(§2) In all instances, analyses were carried out at 25° C. in HBS-E buffer (10 mM HEPES, 150 mM NaCl and 3 mM EDTA, pH7.4) supplemented with 0.005% surfactant P20 at a flow rate of 20 ul/min. The surfaces were regenerated with 100 mM HCl (3 seconds). Data were analyzed with BIAevaluation 4.1 software.

[2] = molecular target: T1, bovine serum albumin; test: SPR (Biacore 3000), BSA immobilized on CM5, 1:1 model; SE 1.1 × 10^-8 in r14c5
Procedure: as §1, §2

[3] = molecular target: T1, bovine serum albumin; test: SPR (Biacore 3000), BSA immobilized on CM5, 1:1 model; SE 5.4 × 10^-3 in r14c4
Procedure: as §1, §2

[4] = molecular target: T1, bovine serum albumin; test: SPR (Biacore 3000), BSA immobilized on CM5; profiles did not fit a 1:1 model
Procedure: as §1, §2

[5] = molecular target: T1, bovine serum albumin; test: SPR (Biacore 3000), BSA immobilized on CM5; estimated, no 1:1 fit
Procedure: as §1, §2

[6] = molecular target: T1, bovine serum albumin; test: SPR (Biacore 3000), BSA immobilized on CM5, extended dissociation
[7] = molecular target: T1, bovine serum albumin; test: SPR (Biacore 3000), BSA immobilized on CM5, calculated from ka and kd
[8] = molecular target: T1, bovine serum albumin; test: SPR (Biacore 3000), BSA immobilized on CM5
[9] = molecular target: T1, bovine serum albumin; test: SPR (Biacore 3000), BSA immobilized on CM5, 1:1 model; SE 3.2 × 10^3 in r12c3
[10] = molecular target: T1, bovine serum albumin; test: SPR (Biacore 3000), BSA immobilized on CM5, 4 h dissociation time; SE 3 × 10^-8 in r12c4

T1 sequence (P02769 25-607 limits assumed): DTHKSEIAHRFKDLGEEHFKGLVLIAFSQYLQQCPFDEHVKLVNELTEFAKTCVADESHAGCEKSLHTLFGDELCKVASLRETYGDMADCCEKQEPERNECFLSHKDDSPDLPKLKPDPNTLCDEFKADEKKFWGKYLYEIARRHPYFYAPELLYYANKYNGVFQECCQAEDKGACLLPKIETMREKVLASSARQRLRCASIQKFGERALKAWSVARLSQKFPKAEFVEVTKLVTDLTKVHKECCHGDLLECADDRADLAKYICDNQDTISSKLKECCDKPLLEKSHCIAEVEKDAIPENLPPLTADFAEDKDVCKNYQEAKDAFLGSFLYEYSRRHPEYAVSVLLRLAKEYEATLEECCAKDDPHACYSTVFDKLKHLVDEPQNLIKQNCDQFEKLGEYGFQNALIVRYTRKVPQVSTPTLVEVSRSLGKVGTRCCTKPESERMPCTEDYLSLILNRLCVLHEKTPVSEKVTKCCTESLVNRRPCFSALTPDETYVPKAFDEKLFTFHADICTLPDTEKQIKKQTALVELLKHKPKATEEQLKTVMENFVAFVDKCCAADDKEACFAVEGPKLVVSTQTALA

B1: sdAb BSA16 (VHH)
VHH: QVKLEESGGGLVQAGGSLRLSCAPSGRTFRTWRMGWFRQAPGKEREFVAAINLNTGNTYYVDSVKGRFTISGDYAKNTLYLQMNSLKPEDTAVYFCAARSPDSDYVPLSSIDYQYWGQGTQVTVSS
With B1 the kon [1] was 1e+06 M⁻¹ s⁻¹, the Kd [2] was 280 nM and the koff [3] was 0.27 s⁻¹.

B2: sdAb BSA8 (VHH)
VHH: QVKLEESGGGLAQAGGSLRLSCAASERTFIRYTIGWFRQAPGKEREFVGRVNWSGGDTYYADSVKGRFTISRDNAKTTVTLQMSSLKPEDTAVYSCAASPKWSEIPREYIYWGPGTQVTVSS
With B2 the koff [4] was 0.005 s⁻¹ and the Kd [5] was about 100 nM.

B3: sdAb BSA12 (VHH, part only)
VHH: QVKLEESGGGLVQVGDSLRLSCAASGRTFSNYTMAWFRQFPGKEREFVAVVSRGGGATDYADSVKGRFTISRDNAKNTMYLQMNSLKTDTAVYYCAAGTDLSYYYSTKKWAYWGQGTQVTVSS
modifications: c-Myc and 6xHis tags
For B3, the koff [6] was 1e-05 s⁻¹, the Kd [7] was 0.004 nM and the binding capacity (RU) [8] was 150 RU. The kon [9] was 2.5e+06 M⁻¹ s⁻¹ and the koff [10] was 9e-06 s⁻¹.

Source: US20110318348A1 (NATIONAL RESEARCH COUNCIL OF CANADA, published 2011)
